Substitutions are numbered along the chain they refer to.
Columns and labels:
Experiment in all cases: ELISA, plate-bound chemokine (1 ug/ml), antibody 10 ug/ml, OD450
recombinant human CCL22 = target: T1, recombinant human CCL22 (human, UniProt O00626 25-93)
T1 construct: also called MDC
T1 sequence (looked up): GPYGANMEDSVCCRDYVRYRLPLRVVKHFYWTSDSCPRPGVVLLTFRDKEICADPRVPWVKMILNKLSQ
Procedure: (§1) The wells of a 96-well plate were coated with 1 μg/ml of the recombinant human chemokines in PBS (−). After overnight incubation at 4° C., the wells were blocked with 1× Block-Ace (Dainippon Sumitomo Pharma, UK-B80) for 1 hour at room temperature. After washing twice with 0.02% Tween 20/PBS (−), we added 50 μl of 10 μg/ml purified 36F7C10, chimeric 36F710, HC2/LK3, or HC2/LC3 in 0.02% Tween 20/PBS (−) to each well. The wells were incubated for 1 hour at room temperature and washed three times as described in Example 3. […] After washing five times, a TMBZ (3,3′,5,5′-tetramethylbenzidine) solution (1%, in N,N-Dimethylformamide) was added to the wells and incubated for 15-30 minutes. The reaction was stopped by adding an equal volume of a 2 M H₂SO₄ stopping solution, and the optical density was read at 450 nm by ARVO (PerkinElmer).

recombinant human CCL28 = target: T2, recombinant human CCL28 (human, UniProt Q9NRJ3 23-127, limits assumed)
T2 sequence (looked up): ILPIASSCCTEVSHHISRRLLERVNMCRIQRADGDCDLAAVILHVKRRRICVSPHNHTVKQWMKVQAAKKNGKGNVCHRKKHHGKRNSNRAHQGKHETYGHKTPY
Procedure: as §1

recombinant human CCL25 = target: T3, recombinant human CCL25 (human, UniProt O15444 24-150)
T3 construct: also called TECK
T3 sequence (looked up): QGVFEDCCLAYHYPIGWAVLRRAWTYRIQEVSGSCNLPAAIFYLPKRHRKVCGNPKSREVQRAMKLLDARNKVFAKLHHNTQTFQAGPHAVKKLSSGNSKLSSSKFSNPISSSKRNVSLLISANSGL
Procedure: as §1

recombinant human CCL11 = target: T4, recombinant human CCL11 (human, UniProt P51671 24-97)
T4 construct: also called Eotaxin
T4 sequence (P51671 24-97 limits assumed): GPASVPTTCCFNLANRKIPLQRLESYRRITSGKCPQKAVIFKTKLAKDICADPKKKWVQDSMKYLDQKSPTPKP
Procedure: as §1

recombinant human CCL21 = target: T5, recombinant human CCL21 (human, UniProt O00585 24-134)
T5 construct: also called 6Ckine/SLC
T5 sequence (looked up): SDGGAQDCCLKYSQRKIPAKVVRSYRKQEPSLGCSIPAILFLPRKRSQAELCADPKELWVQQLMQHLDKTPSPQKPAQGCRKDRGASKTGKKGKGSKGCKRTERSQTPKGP
Procedure: as §1

[1] = target: T6, recombinant human CX3CL1 (Chemokine Domain) (human, UniProt P78423 25-100)
T6 construct: domain: Chemokine Domain; also called FKN
T6 sequence (looked up): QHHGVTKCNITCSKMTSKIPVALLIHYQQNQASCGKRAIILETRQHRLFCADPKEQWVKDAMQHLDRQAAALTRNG
Procedure: as §1

recombinant human CXCL10 = target: T7, recombinant human CXCL10 (human, UniProt P02778 22-98)
T7 construct: also called IP-10
T7 sequence (looked up): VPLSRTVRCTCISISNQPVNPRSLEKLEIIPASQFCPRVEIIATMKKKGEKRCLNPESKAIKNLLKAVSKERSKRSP
Procedure: as §1

recombinant human CXCL12 = target: T8, recombinant human CXCL12 (human, UniProt P48061-2 22-89)
T8 construct: also called SDF-1/PBSF
T8 sequence (P48061 22-89 limits assumed): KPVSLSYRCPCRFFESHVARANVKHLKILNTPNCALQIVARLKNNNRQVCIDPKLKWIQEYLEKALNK
Procedure: as §1

recombinant human CXCL9 = target: T9, recombinant human CXCL9 (human, UniProt Q07325 23-125)
T9 construct: also called MIG
T9 sequence (looked up): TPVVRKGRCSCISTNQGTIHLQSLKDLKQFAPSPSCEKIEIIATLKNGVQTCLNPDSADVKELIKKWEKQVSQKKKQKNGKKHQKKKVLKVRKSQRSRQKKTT
Procedure: as §1

recombinant human CCL24 = target: T10, recombinant human CCL24 (human, UniProt O00175 27-119, limits assumed)
T10 construct: also called Eotaxin-2/MPIF-2
T10 sequence (looked up): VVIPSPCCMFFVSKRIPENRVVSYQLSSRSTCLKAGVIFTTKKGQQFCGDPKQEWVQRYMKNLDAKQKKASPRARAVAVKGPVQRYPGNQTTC
Procedure: as §1

recombinant human CCL3 = target: T11, recombinant human CCL3 (human, UniProt P10147 27-92, limits assumed)
T11 construct: also called MIP-1a
T11 sequence (looked up): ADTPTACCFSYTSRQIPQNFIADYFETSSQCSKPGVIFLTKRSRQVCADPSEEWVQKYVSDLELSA
Procedure: as §1

recombinant human CCL19 = target: T12, recombinant human CCL19 (human, UniProt Q99731 22-98)
T12 construct: also called MIP-3b
T12 sequence (looked up): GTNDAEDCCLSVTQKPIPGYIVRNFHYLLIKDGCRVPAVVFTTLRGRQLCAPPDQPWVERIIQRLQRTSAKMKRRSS
Procedure: as §1

recombinant human CCL13 = target: T13, recombinant human CCL13 (human, UniProt Q99616 24-98)
T13 construct: also called MCP-4
T13 sequence (Q99616 24-98 limits assumed): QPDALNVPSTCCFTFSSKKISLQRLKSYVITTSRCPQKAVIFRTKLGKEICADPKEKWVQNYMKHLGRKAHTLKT
Procedure: as §1

recombinant human CCL2 = target: T14, recombinant human CCL2 (human, UniProt P13500 24-99)
T14 construct: also called MCP-1/MCAF/JE
T14 sequence (P13500 24-99 limits assumed): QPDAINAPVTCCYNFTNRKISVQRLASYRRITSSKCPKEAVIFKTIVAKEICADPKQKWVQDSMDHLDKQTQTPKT
Procedure: as §1

Measured: binding result

B1: mouse anti-human CCL20 monoclonal antibody 36F7C10 (antibody, V domains shown)
VH: QVQLQQPGAELVKPGASVKMSCKASGYTFTNYWMHWVKQRPGQGLEWIGVIDPSDSYTTYNQKFKGKATLTVDTSSSTAYMQLSSLTSEDSAVYYCTRGNYGVDYAMDYWGQGTSVTVSS
VL: DIQMTQSPASLSASVGETVTITCGASENIYGALNWYQRKQGKSPQLLIYGATNLADGMSSRFSGSGSGRQYSLKISSLHPDDVATYYCQNVLITPYTFGGGTKLEIK
notes: Mouse hybridoma antibody; also called MouseMAb; parental mouse clone 36F7C10
no binding (tested: 10 ug/ml): recombinant human CCL22 | recombinant human CCL28 | recombinant human CCL25 | recombinant human CCL11 | recombinant human CCL21 | [1] | recombinant human CXCL10 | recombinant human CXCL12 | recombinant human CXCL9 | recombinant human CCL24 | recombinant human CCL3 | recombinant human CCL19 | recombinant human CCL13 | recombinant human CCL2

B2: chimeric 36F7C10 antibody (36F7C10-hFc) (antibody, V domains shown)
VH: B1 VH
VL: B1 VL
notes: also called chimeric 36F710; Chimeric MAb
no binding (tested: 10 ug/ml): recombinant human CCL22 | recombinant human CCL28 | recombinant human CCL25 | recombinant human CCL11 | recombinant human CCL21 | [1] | recombinant human CXCL10 | recombinant human CXCL12 | recombinant human CXCL9 | recombinant human CCL24 | recombinant human CCL3 | recombinant human CCL19 | recombinant human CCL13 | recombinant human CCL2

B3: humanized anti-human CCL20 antibody 36LK3/36HC2 (antibody, human IgG1, kappa, V domains shown)
VH: QVQLVQSGAEVKKPGASVKVSCKASGYTFTNYWMHWVRQAPGQGLEWMGVIDPSDSYTTYAQKFQGRVTMTVDTSTSTVYMELSSLRSEDTAVYYCARGNYGVDYAMDYWGQGTLVTVSS
VL: DIQMTQSPSSLSASVGDRVTITCGASENIYGALNWYQRKPGKAPKLLIYGATNLADGVPSRFSGSGSGRDYTLTISSLQPEDFATYYCQNVLITPYTFGQGTKLEIKR
notes: expressed in HEK293 cells; also called HC2/LK3; HC2LK3
no binding (tested: 10 ug/ml): recombinant human CCL22 | recombinant human CCL28 | recombinant human CCL25 | recombinant human CCL11 | recombinant human CCL21 | [1] | recombinant human CXCL10 | recombinant human CXCL12 | recombinant human CXCL9 | recombinant human CCL24 | recombinant human CCL3 | recombinant human CCL19 | recombinant human CCL13 | recombinant human CCL2

B4: humanized anti-human CCL20 antibody 36LC3/36HC2 (antibody, human IgG1, kappa, V domains shown)
VH: B3 VH
VL: B3 VL with G24R, R38Q, D70Q, T72S, Q100G
notes: expressed in HEK293 cells; also called HC2/LC3; HC2LC3
no binding (tested: 10 ug/ml): recombinant human CCL22 | recombinant human CCL28 | recombinant human CCL25 | recombinant human CCL11 | recombinant human CCL21 | [1] | recombinant human CXCL10 | recombinant human CXCL12 | recombinant human CXCL9 | recombinant human CCL24 | recombinant human CCL3 | recombinant human CCL19 | recombinant human CCL13 | recombinant human CCL2
